Kd data for 1 molecule are collected here from paper PMC4351158 (Structure (London, England : 1993), 2015).

Where no end group is shown, it is not given here. fluorescein = fluorescein, a fluorescent label on the peptide N-terminus

Assay in all cases: fluorescence polarisation
(Fluorescence polarisation rises when a labelled molecule tumbles more slowly, as on binding a larger partner.)

One experiment deals with T1, DegS Q187A (E. coli, UniProt P0AEE3 27-355, Q187A).
T1 sequence (looked up): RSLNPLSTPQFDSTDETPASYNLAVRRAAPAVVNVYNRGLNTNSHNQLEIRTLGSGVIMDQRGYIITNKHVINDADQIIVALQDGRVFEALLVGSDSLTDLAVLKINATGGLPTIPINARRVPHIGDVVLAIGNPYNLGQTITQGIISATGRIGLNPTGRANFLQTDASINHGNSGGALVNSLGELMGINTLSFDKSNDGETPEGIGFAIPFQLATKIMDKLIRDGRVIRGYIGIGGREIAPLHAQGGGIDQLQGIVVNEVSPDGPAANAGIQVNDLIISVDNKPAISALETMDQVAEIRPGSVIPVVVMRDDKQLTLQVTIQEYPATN

The target of a further experiment is T2, DegS E230A (E. coli, UniProt P0AEE3 27-355, E230A).
T2 sequence (looked up): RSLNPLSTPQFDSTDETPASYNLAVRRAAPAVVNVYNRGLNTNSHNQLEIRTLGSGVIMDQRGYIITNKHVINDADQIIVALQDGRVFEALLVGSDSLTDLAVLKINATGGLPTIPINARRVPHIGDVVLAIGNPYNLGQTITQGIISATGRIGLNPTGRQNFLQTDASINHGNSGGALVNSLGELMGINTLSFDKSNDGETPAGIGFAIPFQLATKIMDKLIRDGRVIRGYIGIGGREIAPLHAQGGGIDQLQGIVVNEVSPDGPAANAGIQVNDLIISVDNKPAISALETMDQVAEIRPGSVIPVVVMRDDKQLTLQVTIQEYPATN

For the next experiment, the target named is T3, DegS I232A (E. coli, UniProt P0AEE3 27-355, I232A).
T3 sequence (looked up): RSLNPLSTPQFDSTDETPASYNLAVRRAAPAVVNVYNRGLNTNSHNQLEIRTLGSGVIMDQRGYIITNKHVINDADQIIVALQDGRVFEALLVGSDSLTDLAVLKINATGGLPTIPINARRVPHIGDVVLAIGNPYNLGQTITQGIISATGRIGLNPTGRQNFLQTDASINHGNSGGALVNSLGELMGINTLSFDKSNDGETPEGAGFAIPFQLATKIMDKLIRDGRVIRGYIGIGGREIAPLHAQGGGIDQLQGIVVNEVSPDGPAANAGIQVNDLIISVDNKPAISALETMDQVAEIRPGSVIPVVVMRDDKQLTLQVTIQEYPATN

A further experiment addresses T4, DegS T169A/H198P (E. coli, UniProt P0AEE3 27-355, T169A | H198P).
T4 sequence (looked up): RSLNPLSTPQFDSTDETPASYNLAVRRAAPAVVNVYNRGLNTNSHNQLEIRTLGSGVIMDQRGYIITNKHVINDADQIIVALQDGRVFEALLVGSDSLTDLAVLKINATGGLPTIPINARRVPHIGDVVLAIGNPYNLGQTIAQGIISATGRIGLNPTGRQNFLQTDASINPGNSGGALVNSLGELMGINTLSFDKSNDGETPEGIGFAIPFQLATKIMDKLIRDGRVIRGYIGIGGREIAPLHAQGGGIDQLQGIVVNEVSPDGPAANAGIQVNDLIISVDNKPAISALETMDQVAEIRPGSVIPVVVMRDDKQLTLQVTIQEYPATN

The next experiment deals with T5, DegS H198P/I232A (E. coli, UniProt P0AEE3 27-355, H198P | I232A).
T5 sequence (looked up): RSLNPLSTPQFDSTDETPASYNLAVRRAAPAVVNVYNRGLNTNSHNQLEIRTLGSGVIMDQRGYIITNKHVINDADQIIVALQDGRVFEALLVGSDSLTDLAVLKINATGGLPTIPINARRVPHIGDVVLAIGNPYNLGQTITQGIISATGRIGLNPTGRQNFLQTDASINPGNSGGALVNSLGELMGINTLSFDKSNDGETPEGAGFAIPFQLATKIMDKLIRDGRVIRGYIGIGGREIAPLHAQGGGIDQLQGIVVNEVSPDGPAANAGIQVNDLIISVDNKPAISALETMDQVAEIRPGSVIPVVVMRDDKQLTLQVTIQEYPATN

Consider fluorescein-DNRDGNVYYF [fluorescent OMP peptide fluorescein-DNRDGNVYYF], for which the Kd worked out at 2300 ± 100 nM in the experiment with DegS Q187A; 5700 ± 1300 nM with DegS E230A; 2200 ± 300 nM in the experiment with DegS I232A; 2000 ± 200 nM with DegS T169A/H198P; 2700 ± 300 nM in the experiment with DegS H198P/I232A.

By Kd is commonly meant the free concentration of one partner at which half of the binding sites on the other are occupied at equilibrium, for simple one-to-one binding. High values mean weaker binding, low ones tighter binding.
